Measurements: EP3433280B1 (F. Hoffmann-La Roche AG, dated 2023)

Target: T1, HER1 extracellular domain (human, UniProt P00533 25-645)
T1 construct: extracellular domain; also called HER1 coated chip surface
Assay: SPR (Biacore T100), HER1 extracellular domain amine-coupled to CM5, antibody injected at 3.125-50 nM, 1:1 Langmuir model

B1: HER1-binding IgG1 antibody GA201 (antibody, V domains shown)
VH: QVQLVQSGAEVKKPGSSVKVSCKASGFTFTDYKIHWVRQAPGQGLEWMGYFNPNSGYSTYAQKFQGRVTITADKSTSTAYMELSSLRSEDTAVYYCARLSPGGYYVMDAWGQGTTVTVSS
VL: DIQMTQSPSSLSASVGDRVTITCRASQGINNYLNWYQQKPGKAPKRLIYNTNNLQTGVPSRFSGSGSGTEFTLTISSLQPEDFATYYCLQHNSFPTFGQGTKLEIKR
notes: IgG1, produced in 293-F cells; also called GA201 parental unmasked antibody; anti HER1 antibody GA201
Binder B1 has a Kd of 1 nM.
